# Reference: patent US20250281611A1 (BIOSCEPTRE AUST, published 2025)
# B1: CD33 BRIDGE variant B19 (Fab, V domains shown)
# VH: QVQLVQSGAEVKKPGSSVKVSCKASGYTFTDYNMHWVRQAPGQGLEWIGYIYPYNGGTGYNQKFKSKATITADESTNTAYMELSSLRSEDTAVYYCARGRPAMDYWGQGTLVTVSS
# VL: DIQMTQSPSSLSASVGDRVTITCRASESVDNYGISFMNWFQQKPGKAPKLLIYAASNQGSGVPSRFSGSGSGTDFTLTISSLQPDDFATYYCQQSKEVPWTFGQGTKVEIKR
# notes: Lintuzumab-based Fab bridging molecule
# B2: CD33 BRIDGE variant B20 (Fab, V domains shown)
# VH: B1 VH
# VL: B1 VL
# notes: as for B1
# B3: CD33 BRIDGE variant B25 (Fab, V domains shown)
# VH: B1 VH
# VL: B1 VL
# notes: as for B1
# B4: CD33 BRIDGE variant B15 (Fab)
# light: GHNYTTRNILPGLNITSGGGGSEPKSSDKTHTGGGGSDIQMTQSPSSLSASVGDRVTITCRASESVDNYGISFMNWFQQKPGKAPKLLIYAASNQGSGVPSRFSGSGSGTDFTLTISSLQPDDFATYYCQQSKEVPWTFGQGTKVEIKRTVAAPSVFIFPPSDEQLKSGTASVVCLLNNFYPREAKVQWKVDNALQSGNSQESVTEQDSKDSTYSLSSTLTLSKADYEKHKVYACEVTHQGLSSPVTKSFNRGECHHHHHH
# heavy: QVQLVQSGAEVKKPGSSVKVSCKASGYTFTDYNMHWVRQAPGQGLEWIGYIYPYNGGTGYNQKFKSKATITADESTNTAYMELSSLRSEDTAVYYCARGRPAMDYWGQGTLVTVSSASTKGPSVFPLAPSSKSTSGGTAALGCLVKDYFPEPVTVSWNSGALTSGVHTFPAVLQSSGLYSLSSVVTVPSSSLGTQTYICNVNHKPSNTKVDKKVEPKSCHHHHHH
# notes: as for B1
# B5: CD33 BRIDGE variant B21 (Fab)
# light: DFPGHNYTTRNILPGLNITSGGGGSEPKSSDKTHTDIQMTQSPSSLSASVGDRVTITCRASESVDNYGISFMNWFQQKPGKAPKLLIYAASNQGSGVPSRFSGSGSGTDFTLTISSLQPDDFATYYCQQSKEVPWTFGQGTKVEIKRTVAAPSVFIFPPSDEQLKSGTASVVCLLNNFYPREAKVQWKVDNALQSGNSQESVTEQDSKDSTYSLSSTLTLSKADYEKHKVYACEVTHQGLSSPVTKSFNRGECHHHHHH
# heavy: B4 heavy
# notes: as for B1
# B6: CD33 BRIDGE variant B16 (Fab)
# light: GHNYTTRNILPGLNITSTFHKTSGSGKEPKSSDKTHTGGGGSDIQMTQSPSSLSASVGDRVTITCRASESVDNYGISFMNWFQQKPGKAPKLLIYAASNQGSGVPSRFSGSGSGTDFTLTISSLQPDDFATYYCQQSKEVPWTFGQGTKVEIKRTVAAPSVFIFPPSDEQLKSGTASVVCLLNNFYPREAKVQWKVDNALQSGNSQESVTEQDSKDSTYSLSSTLTLSKADYEKHKVYACEVTHQGLSSPVTKSFNRGECHHHHHH
# heavy: B4 heavy
# notes: as for B1
# B7: CD33 BRIDGE variant B17 (Fab)
# light: GHNYTTRNILPGLNITSTFHKTSGSGKGSEPKSSDKTHTGGGGSDIQMTQSPSSLSASVGDRVTITCRASESVDNYGISFMNWFQQKPGKAPKLLIYAASNQGSGVPSRFSGSGSGTDFTLTISSLQPDDFATYYCQQSKEVPWTFGQGTKVEIKRTVAAPSVFIFPPSDEQLKSGTASVVCLLNNFYPREAKVQWKVDNALQSGNSQESVTEQDSKDSTYSLSSTLTLSKADYEKHKVYACEVTHQGLSSPVTKSFNRGECHHHHHH
# heavy: B4 heavy
# notes: as for B1
# B8: CD33 BRIDGE variant B22 (Fab)
# light: DFPGHNYTTRNILPGLNITSTFHKTSGSGKEPKSSDKTHTDIQMTQSPSSLSASVGDRVTITCRASESVDNYGISFMNWFQQKPGKAPKLLIYAASNQGSGVPSRFSGSGSGTDFTLTISSLQPDDFATYYCQQSKEVPWTFGQGTKVEIKRTVAAPSVFIFPPSDEQLKSGTASVVCLLNNFYPREAKVQWKVDNALQSGNSQESVTEQDSKDSTYSLSSTLTLSKADYEKHKVYACEVTHQGLSSPVTKSFNRGECHHHHHH
# heavy: B4 heavy
# notes: as for B1
# B9: CD33 BRIDGE variant B23 (Fab)
# light: DFPGHNYTTRNILPGLNITSTFHKTSGSGKGSEPKSSDKTHTDIQMTQSPSSLSASVGDRVTITCRASESVDNYGISFMNWFQQKPGKAPKLLIYAASNQGSGVPSRFSGSGSGTDFTLTISSLQPDDFATYYCQQSKEVPWTFGQGTKVEIKRTVAAPSVFIFPPSDEQLKSGTASVVCLLNNFYPREAKVQWKVDNALQSGNSQESVTEQDSKDSTYSLSSTLTLSKADYEKHKVYACEVTHQGLSSPVTKSFNRGECHHHHHH
# heavy: B4 heavy
# notes: as for B1
# B10: CD33 BRIDGE variant B18 (Fab)
# light: GHNYTTRNILPGLNITSTFHKTSGSGKGGGGSEPKSSDKTHTGGGGSDIQMTQSPSSLSASVGDRVTITCRASESVDNYGISFMNWFQQKPGKAPKLLIYAASNQGSGVPSRFSGSGSGTDFTLTISSLQPDDFATYYCQQSKEVPWTFGQGTKVEIKRTVAAPSVFIFPPSDEQLKSGTASVVCLLNNFYPREAKVQWKVDNALQSGNSQESVTEQDSKDSTYSLSSTLTLSKADYEKHKVYACEVTHQGLSSPVTKSFNRGECHHHHHH
# heavy: B4 heavy
# notes: as for B1
# B11: CD33 BRIDGE variant B24 (Fab)
# light: DFPGHNYTTRNILPGLNITSTFHKTSGSGKGGGGSEPKSSDKTHTDIQMTQSPSSLSASVGDRVTITCRASESVDNYGISFMNWFQQKPGKAPKLLIYAASNQGSGVPSRFSGSGSGTDFTLTISSLQPDDFATYYCQQSKEVPWTFGQGTKVEIKRTVAAPSVFIFPPSDEQLKSGTASVVCLLNNFYPREAKVQWKVDNALQSGNSQESVTEQDSKDSTYSLSSTLTLSKADYEKHKVYACEVTHQGLSSPVTKSFNRGECHHHHHH
# heavy: B4 heavy
# notes: as for B1
# B12: CD33 BRIDGE variant B28 (Fab)
# light: DFPGHNYTTRNILPGLNITSTFHKTSGSGKEPKSSDKTHTGSDIQMTQSPSSLSASVGDRVTITCRASESVDNYGISFMNWFQQKPGKAPKLLIYAASNQGSGVPSRFSGSGSGTDFTLTISSLQPDDFATYYCQQSKEVPWTFGQGTKVEIKRTVAAPSVFIFPPSDEQLKSGTASVVCLLNNFYPREAKVQWKVDNALQSGNSQESVTEQDSKDSTYSLSSTLTLSKADYEKHKVYACEVTHQGLSSPVTKSFNRGECHHHHHH
# heavy: B4 heavy
# notes: as for B1
# Assays:
# nfP2X7 CAR 1 [1] = biological target: T1, nfP2X7 CAR 1; assay: flow cytometry, CAR T cells, anti-His-FITC, EGFR+ MFI over background 0.4
# T1 construct: Expressed on T cells with truncated EGFR as marker gene; also called anti-nfP2X7 receptor CAR 1; nfP2X7 targeted CAR on EGFR+ T cells
# Experimental: (§1) nfP2X₇ CAR T cells were incubated with different BRiDGE variants at saturating concentrations. […] The MFI intensity correlates with the number of secondary bound antibodies bound to the BRiDGEs that are only detected if they are bound to the CAR T cells. EGFR was used as a marker gene to detect the CAR expression. Thus, the EGFR+ T cell population was defined as the CAR expressing cells and the EGFR− T cell population was defined as the CAR negative subset. MFI: median fluorescence intensity. EGFR: epidermal growth factor receptor. BLItz: Bio-Layer interferometry (BLI) technology using HIS-tag identification tips. HIS-tag MFI Ratio: relative index that is calculated by the testing condition MFI divided by the control MFI, which corresponds to the MFI measured on EGFR+ T cells (defined as CAR positive cells) divided by the MFI measured on the EGFR− T cells (defined as CAR negative cells). […] The higher the MFIR, the stronger the binding.
# nfP2X7 CAR 1 [2] = biological target: T1, nfP2X7 CAR 1; assay: flow cytometry, CAR T cells, anti-His-FITC, EGFR+ over EGFR- cells
# Experimental: as §1
# CD33 [3] = biological target: T2, CD33 (UniProt P20138 18-364, limits assumed); assay: flow cytometry, MOLM-13 cells, anti-His-FITC detection, ratio to no bridge
# T2 construct: whole, on cells; also called Siglec-3; CD33 on MOLM-13 cells
# Experimental: (§2) MOLM-13 cells were incubated with different CD33 BRIDGE variants at saturating concentrations. […] The MFI intensity correlates with the number of secondary antibodies bound to the CD33 BRIDGE variants that are only detected if they are bound to the MOLM-13 cells. MFI: median fluorescence intensity. BLItz: Bio-Layer interferometry (BLI) technology using HIS-tag identification tips. […] The higher the MFIR, the stronger the binding.
# CD33 [4] = biological target: T2, CD33; assay: flow cytometry, MOLM-13 cells, anti-His-FITC detection
# Experimental: as §2
# nfP2X7 CAR 1 [5] = biological target: T1, nfP2X7 CAR 1; assay: flow cytometry, nfP2X7 CAR T cells (EGFR+), anti-His-FITC detection
# Experimental: as §1
# T2 sequence (P20138 18-364 limits assumed): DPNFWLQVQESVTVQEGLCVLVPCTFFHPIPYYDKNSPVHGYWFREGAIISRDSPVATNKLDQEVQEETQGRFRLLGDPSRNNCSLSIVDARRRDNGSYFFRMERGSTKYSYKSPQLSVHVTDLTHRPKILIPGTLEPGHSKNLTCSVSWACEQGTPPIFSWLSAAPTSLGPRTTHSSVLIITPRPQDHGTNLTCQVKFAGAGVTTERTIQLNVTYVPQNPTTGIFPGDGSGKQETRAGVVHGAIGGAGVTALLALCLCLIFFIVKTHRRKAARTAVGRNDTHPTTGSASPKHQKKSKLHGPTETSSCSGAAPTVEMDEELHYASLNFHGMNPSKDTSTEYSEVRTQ
Binder,HisTag MFI Ratio (background 0.4) (nfP2X7 CAR 1 [1]),HisTag MFI Ratio of EGFR+/EGFR- (nfP2X7 CAR 1 [2]),MFIR HisTag FITC (CD33 [3]),MFI HisTag FITC (CD33 [4]),MFI HisTag FITC in EGFR+ Population (nfP2X7 CAR 1 [5])
B1,3.2,2.9,7.99,5.35,1.29
B2,3.2,2.9,8.46,5.67,1.29
B3,4.6,3.4,10.9,7.29,1.82
B4,3.8,3.1,11.4,7.64,1.5
B5,2.9,2.8,9.01,6.04,1.14
B6,4.6,3.4,9.36,6.27,1.83
B7,4,3.2,11,7.36,1.58
B8,3.6,3.1,6.88,4.61,1.44
B9,4.3,3.4,10.2,6.82,1.71
B10,4.5,3.4,8.64,5.79,1.79
B11,4.6,3.5,9.33,6.25,1.82
B12,4,3.2,9.45,6.33,1.58
